Test results reported in paper PMC2756588.

T1: Bud14, P27637
T1 sequence (P27637 247-328, looked up): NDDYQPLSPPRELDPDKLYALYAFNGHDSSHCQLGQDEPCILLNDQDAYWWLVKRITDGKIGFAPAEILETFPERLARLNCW

T2: Nbp2, Q12163
T2 sequence (Q12163 103-180, looked up): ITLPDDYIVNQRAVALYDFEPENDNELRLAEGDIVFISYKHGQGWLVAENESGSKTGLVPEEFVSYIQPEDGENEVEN

T3: Abp1, P15891
T3 sequence (P15891 535-592, looked up): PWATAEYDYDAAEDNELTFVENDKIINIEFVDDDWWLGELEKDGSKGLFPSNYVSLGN

T4: Myo5, Q04439
T4 sequence (Q04439 1072-1160, looked up): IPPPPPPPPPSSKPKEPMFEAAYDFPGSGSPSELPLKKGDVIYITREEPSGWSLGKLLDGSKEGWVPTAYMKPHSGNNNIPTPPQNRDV

T5: Pin3, Q06449
T5 sequence (Q06449 53-122, looked up): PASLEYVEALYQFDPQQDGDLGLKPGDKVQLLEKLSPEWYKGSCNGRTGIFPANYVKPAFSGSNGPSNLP

T6: Fus1, P11710
T6 sequence (P11710 432-512, looked up): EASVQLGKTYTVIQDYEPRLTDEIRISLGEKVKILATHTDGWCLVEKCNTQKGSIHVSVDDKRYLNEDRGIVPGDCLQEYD

T7: Bzz1-2, P38822
T7 sequence (P38822 568-633, looked up): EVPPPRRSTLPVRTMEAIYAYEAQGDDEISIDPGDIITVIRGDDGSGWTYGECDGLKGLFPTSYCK

T8: Sla1-3, P32790
T8 sequence (P32790 344-424, looked up): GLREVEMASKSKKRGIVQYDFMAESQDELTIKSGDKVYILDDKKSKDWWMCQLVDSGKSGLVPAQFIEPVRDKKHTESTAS

T9: Hse1, P38753
T9 sequence (P38753 208-285, looked up): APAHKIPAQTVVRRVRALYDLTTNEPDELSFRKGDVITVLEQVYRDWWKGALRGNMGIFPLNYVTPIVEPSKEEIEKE

T10: Lsb4, P32793
T10 sequence (P32793 402-468, looked up): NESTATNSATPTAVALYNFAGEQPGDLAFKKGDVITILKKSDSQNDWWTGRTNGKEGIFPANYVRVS

T11: Lsb1, P53281
T11 sequence (P53281 45-122, looked up): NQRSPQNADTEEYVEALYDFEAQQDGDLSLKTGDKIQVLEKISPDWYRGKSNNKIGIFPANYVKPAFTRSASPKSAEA

T12: Hof1, Q05080
T12 sequence (Q05080 590-669, looked up): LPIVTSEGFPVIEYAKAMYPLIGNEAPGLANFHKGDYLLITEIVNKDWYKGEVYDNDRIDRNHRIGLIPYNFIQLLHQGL

T13: Pex13, P80667
T13 sequence (P80667 295-386, looked up): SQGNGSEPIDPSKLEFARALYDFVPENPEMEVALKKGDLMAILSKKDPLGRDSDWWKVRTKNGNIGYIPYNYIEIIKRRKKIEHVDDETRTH

T14: Bzz1-1, P38822
T14 sequence (P38822 478-572, looked up): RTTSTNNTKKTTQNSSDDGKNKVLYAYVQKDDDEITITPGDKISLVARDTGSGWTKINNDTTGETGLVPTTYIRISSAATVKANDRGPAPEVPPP

T15: Cyk3, Q07533
T15 sequence (Q07533 1-83, looked up): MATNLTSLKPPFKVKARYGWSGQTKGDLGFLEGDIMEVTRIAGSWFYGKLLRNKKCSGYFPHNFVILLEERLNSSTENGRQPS

T16: Boi1, P38041
T16 sequence (P38041 1-86, looked up): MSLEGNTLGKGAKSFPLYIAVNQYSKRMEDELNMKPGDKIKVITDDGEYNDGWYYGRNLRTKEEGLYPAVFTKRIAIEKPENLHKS

T17: Cdc25, P04821
T17 sequence (P04821 50-136, looked up): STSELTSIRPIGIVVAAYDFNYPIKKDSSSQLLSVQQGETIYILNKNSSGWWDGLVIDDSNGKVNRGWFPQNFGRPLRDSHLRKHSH

T18: Sla1-2, P32790
T18 sequence (P32790 60-140, looked up): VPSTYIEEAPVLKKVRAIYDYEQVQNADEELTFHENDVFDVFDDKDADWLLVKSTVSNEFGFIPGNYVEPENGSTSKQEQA

T19: Bbc1, P47068
T19 sequence (P47068 1-78, looked up): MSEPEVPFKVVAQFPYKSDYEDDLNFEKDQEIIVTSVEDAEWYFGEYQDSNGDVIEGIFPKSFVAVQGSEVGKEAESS

T20: Boi2, P39969
T20 sequence (P39969 32-116, looked up): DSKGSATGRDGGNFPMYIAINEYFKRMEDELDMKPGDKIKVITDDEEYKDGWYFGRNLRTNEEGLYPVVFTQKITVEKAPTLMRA

T21: Lsb3, P43603
T21 sequence (P43603 385-451, looked up): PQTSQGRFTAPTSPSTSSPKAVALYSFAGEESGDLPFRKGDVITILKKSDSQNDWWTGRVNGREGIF

B1: unnamed (peptide)
chain: AKDLIVPRRPEWNEG
B2: unnamed (peptide)
chain: DKKTKPTPPPKPSHL
B3: unnamed (peptide)
chain: GSKSGPPPRPKKPST

target: T1, Bud14, P27637; experiment: SPOT array; settings: median of control spots 956

SPOT intensity	Binder
480	B1
1	B2
7	B3

target: T2, Nbp2, Q12163; experiment: SPOT array; settings: median of control spots 357

SPOT intensity	Binder
1390	B1
0	B2
0	B3

target: T3, Abp1, P15891; experiment: SPOT array; settings: median of control spots 935

SPOT intensity	Binder
766	B1
410	B2
285	B3

target: T4, Myo5, Q04439; experiment: SPOT array; settings: median of control spots 471

SPOT intensity	Binder
624	B1
0	B2
0	B3

target: T5, Pin3, Q06449; experiment: SPOT array; settings: median of control spots 2171

SPOT intensity	Binder
694	B1
0	B2
2	B3

target: T6, Fus1, P11710; experiment: SPOT array; settings: median of control spots 1200

SPOT intensity	Binder
1230	B1
0	B2
0	B3

target: T7, Bzz1-2, P38822; experiment: SPOT array; settings: median of control spots 4538

SPOT intensity	Binder
2660	B1
0	B2
11	B3

target: T8, Sla1-3, P32790; experiment: SPOT array; settings: median of control spots 5475

SPOT intensity	Binder
2730	B1
0	B2
4	B3

target: T9, Hse1, P38753; experiment: SPOT array; settings: median of control spots 1727

SPOT intensity	Binder
1130	B1
4	B2
38	B3

target: T10, Lsb4, P32793; experiment: SPOT array; settings: median of control spots 397

SPOT intensity	Binder
768	B1
0	B2
2	B3

target: T11, Lsb1, P53281; experiment: SPOT array; settings: median of control spots 388

SPOT intensity	Binder
636	B1
0	B2
0	B3

target: Bem1-2, P29366; experiment: SPOT array; settings: median of control spots 4347
Sequence (P29366 139-227): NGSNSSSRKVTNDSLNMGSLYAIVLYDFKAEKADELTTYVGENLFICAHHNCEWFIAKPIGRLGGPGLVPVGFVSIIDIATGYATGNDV

SPOT intensity	Binder
5580	B1
1	B2
2	B3

target: T12, Hof1, Q05080; experiment: SPOT array; settings: median of control spots 4086

SPOT intensity	Binder
5260	B1
3	B2
0	B3

target: T13, Pex13, P80667; experiment: SPOT array; settings: median of control spots 1341

SPOT intensity	Binder
567	B1
4	B2
23	B3

target: T14, Bzz1-1, P38822; experiment: SPOT array; settings: median of control spots 4446

SPOT intensity	Binder
2630	B1
1	B2
3	B3

target: Myo3, P36006; experiment: SPOT array; settings: median of control spots 468

SPOT intensity	Binder
461	B1
0	B2
3	B3

target: GST; experiment: SPOT array; settings: median of control spots 978

SPOT intensity	Binder
446	B1
0	B2
2	B3

target: T15, Cyk3, Q07533; experiment: SPOT array; settings: median of control spots 1451

SPOT intensity	Binder
2720	B1
0	B2
3	B3

target: T16, Boi1, P38041; experiment: SPOT array; settings: median of control spots 1162

SPOT intensity	Binder
1450	B1
3	B2
4	B3

target: Bem1-1, P29366; experiment: SPOT array; settings: median of control spots 4282
Sequence (P29366 55-141): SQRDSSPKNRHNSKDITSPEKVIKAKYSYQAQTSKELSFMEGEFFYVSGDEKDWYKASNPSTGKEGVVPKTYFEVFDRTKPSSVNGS

SPOT intensity	Binder
3920	B1
0	B2
1	B3

target: T17, Cdc25, P04821; experiment: SPOT array; settings: median of control spots 969

SPOT intensity	Binder
347	B1
1	B2
0	B3

target: T18, Sla1-2, P32790; experiment: SPOT array; settings: median of control spots 712

SPOT intensity	Binder
550	B1
1	B2
1	B3

target: T19, Bbc1, P47068; experiment: SPOT array; settings: median of control spots 796

SPOT intensity	Binder
1050	B1
0	B2
13	B3

target: T20, Boi2, P39969; experiment: SPOT array; settings: median of control spots 1161

SPOT intensity	Binder
1640	B1
2	B2
0	B3

target: T21, Lsb3, P43603; experiment: SPOT array; settings: median of control spots 406

SPOT intensity	Binder
591	B1
24	B2
55	B3

target: Sho1, P40073; experiment: SPOT array; settings: median of control spots 1148
Sequence (P40073 287-367): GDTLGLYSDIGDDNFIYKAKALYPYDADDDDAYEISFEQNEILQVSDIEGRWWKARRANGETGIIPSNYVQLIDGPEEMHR

SPOT intensity	Binder
1570	B1
115	B2
16	B3

target: Rvs167, P39743; experiment: SPOT array; settings: median of control spots 2707
Sequence (P39743 419-482): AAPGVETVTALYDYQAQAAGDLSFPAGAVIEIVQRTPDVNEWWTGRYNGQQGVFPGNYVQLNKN

SPOT intensity	Binder
1950	B1
0	B2
1	B3
